B1: GST-tagged CG9590 (Drosophila FAM114A) [Drosophila] / Vap33 [Drosophila (endogenous in S2 cells)] (parent)
chain 1: MAKNPKKEEDGGNDWAQSDEDDNWDDWGDDDDKFVHVEKEQQPQEKVSSRNDAKGTAENQEKLETPRISAPATASATSSSWGLWGGKLSSVLTTATEGLGTITTQVNQGLNQIIGVPDPEELARINVAEKAEKAAKAPPEENVDDEKESSAAFGLDFVTNLGSKVLNTGLDTLEGIGKKTMTILQDNDPKLMNKRKLLGLEANSPNLSAVLLEAKKEADQMEQSLQQLQLKRQKAQLRFEILFENYCGLVHFEALEILSKESRLKLDTLLDAVSGNARAELQETINEVKELIELEDLDVESEGDYEAEELSERLAATIKDAELGIQFDDIANHWTQSLSWLTSEEATAADLEQAYAKSIHALSEACALEMCKLHKIAELLLVKPHHSTANEVDGVVNLCQQFNGHLQGLSHRFAAVLSGKSETEESKGRVSTFFSEMLSAVQFIEKAYKLFTPILQMGAV
chain 2: MSKSLFDLPLTIEPEHELRFVGPFTRPVVTIMTLRNNSALPLVFKIKTTAPKRYCVRPNIGKIIPFRSTQVEICLQPFVYDQQEKNKHKFMVQSVLAPMDADLSDLNKLWKDLEPEQLMDAKLKCVFEMPTAEANAENTSGGGAVGGGTGAAGGGSAGANTSSASAEALESKPKLSSEDKFKPSNLLETSESLDLLSGEIKALRECNIELRRENLHLKDQITRFRSSPAVKQVNEPYAPVLAEKQIPVFYIAVAIAAAIVSLLLGKFFL

The variants in this test derive from B1. The test can be described thus: GST pull-down from S2 cell lysate with mass spectrometry (volcano plot of spectral intensities). As to conditions: three biological replicates, read off a plot.
For the variant chain 1 W24A W27A, the screen value amounted to 5.2 log2.

The values above are taken from paper PMC11441981.
